Reference: article PMC5522423, “Influence of C-terminal truncation of murine Serum amyloid A on fibril structure” (Scientific Reports, 2017)

Target: the molecule itself
Assay: in vitro fibril formation (negative-stain TEM, with ThT fluorescence, Congo red absorption and ATR-FTIR of the fibrils); 80 µM protein in 50 mM Tris buffer (pH 8.0), 7 days at 37 °C, 300 rpm; self-assembly into amyloid-like fibrils

B1: full-length murine serum amyloid A 1.1, SAA(1–103) (natural protein, mouse, UniProt P05367 20-122, looked up)
chain: GFFSFIGEAFQGAGDMWRAYTDMKEAGWKDGDKYFHARGNYDAAQRGPGGVWAAEKISDARESFQEFFGRGHEDTMADQEANRHGRSGKDPNYYRPPGLPAKY
notes: Serum amyloid A 1.1 (SAA1.1), mouse, 103 residues; also called murine SAA1.1; mSAA; source: E. coli RV308 (pMal-c2X vector), purified as described previously, lyophilized
binding result: binds
